Earlier results, collected in paper PMC8920573.

Molecular target: SARS-CoV main protease main protease (Severe acute respiratory syndrome coronavirus) (UniProt P0C6X7)

Substance: SARS-CoV main protease main protease (from UniProt P0C6X7)
- Kd: 2500 nM
